Assays:
[1] = system: K. pneumoniae 8570ΔcpsBLux (O2); test: Opsonophagocytic killing (OPK) assay, O2 capsule mutant; assay type: cell-based, Klebsiella pneumoniae; design: key to D Capsule OPK O2: +++: Strongly positive activity; +: Positive activity; +/−: Somewhat positive depending upon the test conditions; conditions: for D Capsule OPK O2: capsule mutant strain 8570ΔcpsB lux (O2); for OPK activity against O2 capsule mutant: secondary screening
Protocol: (§1) OPK activity of anti-O2 LPS mAbs was tested against O1 and O2 strains. Briefly, log phase cultures of luminescent K. pneumoniae strains 8570ΔcpsBLux (O2) and 43816ΔcpsBLux (O1) were diluted to ˜2×10^6 cells/ml. K. pneumoniae cells, 5e5/well dimethylformamide (DMF) differentiated HL-60 cells, cleared baby rabbit serum (1:10 Cedarlane), and a series dilution of antibodies (2 ng-2.5 μg/mL) were mixed in 96-well plates and incubated at 37° C. for two hours with shaking (250 rpm). The relative light units (RLUs) were then measured using a multi-mode microplate reader (Synergy 2, Biotek or envision multilabel plate reader, Perkin Elmer). The percentage of killing was determined by comparing RLU derived from assays with no antibodies to RLU derived from assays with anti-K. pneumoniae mAbs and assays performed with a negative control mAb. Positive killing was determined where the percentage of killing is above 40%.

O2 LPS = test: ELISA binding to O2 LPS; design: species or system Klebsiella pneumoniae; conditions: secondary screening, ELISA
Protocol: (§2) The coated plates were incubated with cell culture supernatants from polyclonally stimulated lymphocytes (AMVBRA) or from monoclonal immortalized B cells (donor interrogations) containing fully human antibodies or with diluted plasma samples (PBMC donor selections) for 1 hour at room temperature. The plates were then washed with PBS containing 0.1% Tween-20 (PBS-T). Secondary antibody was added; either Alkaline Phosphatase-conjugated Goat Anti-Human IgG-AP (Southern Biotech, 2040-04, 1:1000 in PBS-B) or Peroxidase AffiniPure F(ab′)2 Fragment Goat Anti-Human IgG, Fc Fragment Specific (Jackson ImmunoResearch #309 036 098, 1:5000 in PBS-B) were used. Secondary antibodies were typically incubated for 1 h. Plates were washed three times with PBS-T, and P-NitroPhenyl Phosphate (pNPP, Sigma-Aldrich, cat #N2765-100TAB) or Sureblue (KPL, 53-00-03) substrates were added and incubated for 10 min or until the development of a colorimetric reaction. In the case of the HRP substrate Sureblue, the reaction was stopped by adding an equal volume of 0.2N HCl. The absorbance at 405 nm (pNPP) or 450 nm (Sureblue) was measured by a microplate reader (Biotek, Elx808).
(§3) The coated plates were incubated with serial dilutions of the monoclonal antibodies for 1 hour at room temperature. The plates were then washed with PBS containing 0.1% Tween-20 (PBS-T). Alkaline Phosphatase-conjugated Goat Anti-Human IgG (Southern Biotech, 2040-04, 1:1000 in PBS-B) was added. The secondary antibody reactions were incubated for 1 h. Plates were washed three times with PBS-T, and P-NitroPhenyl Phosphate (pNPP, Sigma-Aldrich, cat #N2765-100TAB) substrate was added and incubated for 30 min or until the development of a colorimetric reaction. The absorbance at 405 nm was measured by a microplate reader (Biotek, Elx808). The data was plotted with Graphpad Prism software. Representative mAbs from each class were tested for their binding to O1 LPS (FIG. 2A) and O2 LPS (FIG. 2B), and EC50 values were obtained (FIG. 2C). The majority of the anti-O2 LPS mAbs bound to both O1 and O2 LPS by ELISA. […] None of these LPS mAbs bound to the 03, 04, 05, 07, or 012 LPS serotypes (see e.g., FIG. 1A).

[2] = system: O2 LPS activation of NF-κB in RAW264.7-lux cells; test: LPS neutralization assay (NF-κB luciferase, RAW264.7-lux), O2 LPS; assay type: cell-based, murine; design: key to LPS Neut O2: +++: Strongly positive activity; +: Positive activity; +/−: Somewhat positive depending upon the test conditions; conditions: for LPS Neut O2: Table 7 summary; for neutralizing activity against O2 LPS (NF-κB activation): human IgG1 format; for neutralization of LPS-O2: secondary screening
Protocol: (§4) Activation of TLR4 receptors by bacterial LPS leads to downstream activation of the NF-κB transcriptional regulator. A decrease in induction of NF-κB-responsive luciferase activity was used to quantify LPS neutralization activity by LPS mAbs. A murine RAW264.7 macrophage cell line was engineered to carry a firefly luciferase reporter gene under the control of an NF-κB-responsive promoter (RAW264.7-lux). Serially diluted antibody stocks were mixed with LPS in a 1:1 ratio and incubated at 4° C. for 1 hr. Antibody/LPS mixtures were then diluted 1:10 into assay plates containing pre-seeded RAW264.7-lux cells (4e5 cells/well), which were then placed at 37° C. with 5% CO2 for 2.5 hours. Following incubations, Steady Glo solution (Promega) was added to each well and incubated for another 20 min protected from light. The relative light units (RLUs) were measured using a multi-mode microplate reader (Synergy 2, Biotek or envision multilabel plate reader, Perkin Elmer). The percentage of inhibition was determined by comparing RLU derived from assays with no antibodies to RLU derived from assays with anti-K. pneumoniae mAbs and assays performed with a negative control mAb. […] All mAbs were tested in human IgG1 format.

O1 LPS = test: ELISA binding to O1 LPS; design: species or system Klebsiella pneumoniae; conditions: secondary screening
Protocol: as §2, §3

[3] = system: O1 LPS activation of NF-κB in RAW264.7-lux cells; test: LPS neutralization assay (NF-κB luciferase, RAW264.7-lux), O1 LPS; assay type: cell-based, murine; conditions: for neutralizing activity against O1 LPS (NF-κB activation): human IgG1 format; for neutralization of LPS-O1: secondary screening
Protocol: as §4

[4] = system: K. pneumoniae 43816ΔcpsBLux (O1); test: Opsonophagocytic killing (OPK) assay, O1 capsule mutant; assay type: cell-based, Klebsiella pneumoniae; design: key to D Capsule OPK O1: +++: Strongly positive activity; +: Positive activity; +/−: Somewhat positive depending upon the test conditions; conditions: capsule mutant strain 43816ΔcpsB lux (O1)
Protocol: as §1

Row | Molecule | D Capsule OPK O2 [1] | OPK activity against O2 capsule mutant [1] | binding to LPS-O2 (O2 LPS) | LPS Neut O2 [2] | neutralizing activity against O2 LPS (NF-κB activation) [2] | neutralization of LPS-O2 [2] | binding to LPS-O1 (O1 LPS) | neutralizing activity against O1 LPS (NF-κB activation) [3] | D Capsule OPK O1 [4] | neutralization of LPS-O1 [3]
1 | KPN17: Class I anti-O2 antigen human mAb; VH SEQ ID NO: 71, VL SEQ ID NO: 72 (antibody, V domains shown, Description of Artificial Sequence: SyntheticKPN17 VH polypeptide; Description of Artificial Sequence: SyntheticKPN17 VL polypeptide) VH: EVQLVESGGGLVQPGGSLRLSCAASGFTFSHFWMHWVRQAPGQGLVWVARIDGSVTNLRYAGSVEGRFTISRDNAKNTLYLQMNSLRDEDTAVYYCARDLVGIGTPAGYGMDVWGQGTTVTVSS VL: DIQLTQSPSFLSASVGDRVTITCRASQGISTYLAWYQQKPGKAPKLLIYAASTLQSGVPSRFSGSGSGTEFTLTINSLQSEDFATYYCQQLTSHLYTFGQGTKLEIK | + | showed OPK activity | bind | +/− | moderate neutralizing activity | neutralize | bind | no activity |  | 
2 | KPS24: Class III anti-O2 antigen human mAb; VH SEQ ID NO: 107, VL SEQ ID NO: 108 (antibody, V domains shown, Description of Artificial Sequence: SyntheticKPS24 VH polypeptide; Description of Artificial Sequence: SyntheticKPS24 VL polypeptide) VH: ELHLVESGGGLVKPGGSLRLSCAASGFTFKNAWMSWIRQAPGKGLEWVGRVKSEVDGGTTDYGVPVRGRFTISRDDSQSTLSLEMSSLQDDDTGVYYCRAFWSDFQTGYWGQGTLVTVSS VL: QSVLTQPPSVSAAPGQTVTIACSGSSSNIGSDSVSWFQQLPGTAPRVLMYENNKRPSGISDRFSGSKSGTSVTLGITGLQTGDEADYYCAAWDSSLRAYVFGSGTKVTVL | +++ | strong OPK activity | bound specifically | +/− | moderate neutralizing activity | neutralized |  | no activity |  | 
3 | KPL36: Class II anti-O2 antigen human mAb; VH SEQ ID NO: 189, VL SEQ ID NO: 192 (antibody, V domains shown, Description of Artificial Sequence: SyntheticKPL36 VH polypeptide; Description of Artificial Sequence: SyntheticKPL36 VL polypeptide) VH: EVQLVESGGGVVQSGGSLRLSCETSGFTFISSWMSWVRQAPGTGLEWVATINPDGTETPYADSLKGRFTISRDNTKKSLYLQIHSLRADDTAVYFCARNKAYNAHDFWGQGTLVMVSS VL: QSALTQPPSASGSPGQSVTISCTGTSSDVGGNNFVSWYQQYPGKAPKLIIYEVNKRPSGVPDRFSGSKSGNTASLTVSGLQAEDEADYYCGAFGGSKMFGGGTKLTVL | + |  | confirmed to bind | + | moderate neutralizing activity | neutralize | confirmed to bind | no activity | + | 
4 | KPN44: anti-O2 antigen human mAb; VH SEQ ID NO: 62, VL SEQ ID NO: 63 (antibody, V domains shown, Description of Artificial Sequence: SyntheticKPN44 VH polypeptide; Description of Artificial Sequence: SyntheticKPN44 VL polypeptide) VH: QVQLQESGPGLVKPSETLSLTCTVSGGSTSSYYWNWIRQAPGKPLQWIANIHHGGTTYYNPSLRSRVTMSLDTSNNQFSLKLTSVTAADTAVYFCARESDDGYRWNYFDYWGQGVLVTVSS VL: EIVLTQSPASLSLSPGDRATLSCRASQTITNYLAWYQHKPGQAPRLLIFDMSKRATGIPARFSGSGSGTDFTLTISSLEPEDFAVYYCQHRSNWPLFTFGPGTNVDIK |  | showed OPK activity | bind |  | blocked | neutralize | bind | blocked |  | neutralize
5 | KPS30: Class I anti-O2 antigen human mAb; VH SEQ ID NO: 125, VL SEQ ID NO: 126 (antibody, V domains shown, Description of Artificial Sequence: SyntheticKPS30 VH polypeptide; Description of Artificial Sequence: SyntheticKPS30 VL polypeptide) VH: EMQLVESGGGLVQPGVSLRLSCVDSGFSFSTSWLAWVRQAPGKGLEWLANIDPDGSTRNHVDSVRGRFTISRDNAKNSLYLQMNSLRAEDTAVYYCARDYAYNRFDYWGQGTMVTVSS VL: QSALTQPPSASGSPGQSVVISCTGTSSDIGANNYVSWYQQHPGKAPKLLLYEVNKRPSGVPDRFSASKSGNTASLTVSGLLAEDEADYYCCGYGGGRVFGGGTKLTVL | +++ | strong OPK activity | bound |  |  | neutralized | bound |  |  | neutralized

— patent US12312397B2, “Anti-O2 antibodies and uses thereof” (priority 2016, dated 2025)
